Measured values: patent US20160355576A1

How the values were obtained:
[1] = target: misfolded-aggregated human wild-type TTR (human), P02766; assay: direct ELISA, antigen coated at 10 µg/ml; conditions: remark: other sources report otherwise
[2] = target: misfolded-aggregated recombinant V30M-TTR (human), P02766; assay: direct ELISA, antigen coated at 10 µg/ml; conditions: remark: other sources report otherwise
[3] = target: human wild-type TTR protein in native conformation (human) (UniProt P02766); assay: SPR, antibody captured by anti-human IgG-Fc, TTR 3.2-316 nM, Langmuir 1:1 fit
[4] = target: misfolded-aggregated human wild-type TTR (human), P02766; assay: as above; conditions: remark: other sources report otherwise
[5] = target: native TTR-L55P (human), P02766; assay: as above; conditions: remark: other sources report otherwise
[6] = target: native TTR-V30M (human), P02766; assay: as above; conditions: remark: other sources report otherwise

B1: NI-301.35G11 (antibody, V domains shown)
VH: EVQLVESGGGLVQPGGSLRLSCVASGFTFSSYAMSWVRQVPGKGLEWVSSISGSGDTTKYTDSVKGRFTISRDNSKNTVFLQMSSLRAEDTALYYCVKDGSGRIDPFALWGQGTMVTVSS
VL: EIVMTQSPLSLPVTLGQPASISCRSSRSLVYSDGNIYLNWFQQRPGQSPRRLIYKVSNRDSGVPDRFSGSGSDTDFTLRISRVEAEDVGVYYCMQGTHWPRTFGQGTKVEIK
Q: With B1 as the binder, how does the EC50 [1] read?
A: Its EC50 is 3.9 nM.

Q: What about the EC50 [2] of the same binder?
A: Its EC50 is 5 nM.

Q: What about the Kd [3] of the same binder?
A: Its Kd is > 316 nM.

Q: And the Kd [4]?
A: Its Kd is 12 nM.

Q: And the koff [4]?
A: Its koff is 0.00027 s⁻¹.

Q: And the kon [4]?
A: The kon was 23000 M⁻¹ s⁻¹.

Q: And the Kd [5]?
A: Its Kd is > 100 nM.

Q: What about the Kd [6] of the same binder?
A: The Kd was 33 nM.

Q: And the koff [6]?
A: Its koff is 0.00024 s⁻¹.

Q: And the kon [6]?
A: The kon was 7400 M⁻¹ s⁻¹.
